From the supplement of paper PMC10065799, “High-throughput profiling of sequence recognition by tyrosine kinases and SH2 domains using bacterial peptide display” (eLife, 2023)

How the values were obtained:
EPHB2 = EPHB2 (UniProt P29323); assay: phosphorylation enrichment, bacterial display (enrichment ratio); higher = better substrate or ligand; peptides without Tyr show the background
c-Abl (mouse) = assay: as above
c-Src = assay: as above
FGFR1 = FGFR1 (UniProt P11362); assay: as above
Fyn = Fyn (UniProt P06241); assay: as above
Chain of Fyn (P06241 whole entry, looked up): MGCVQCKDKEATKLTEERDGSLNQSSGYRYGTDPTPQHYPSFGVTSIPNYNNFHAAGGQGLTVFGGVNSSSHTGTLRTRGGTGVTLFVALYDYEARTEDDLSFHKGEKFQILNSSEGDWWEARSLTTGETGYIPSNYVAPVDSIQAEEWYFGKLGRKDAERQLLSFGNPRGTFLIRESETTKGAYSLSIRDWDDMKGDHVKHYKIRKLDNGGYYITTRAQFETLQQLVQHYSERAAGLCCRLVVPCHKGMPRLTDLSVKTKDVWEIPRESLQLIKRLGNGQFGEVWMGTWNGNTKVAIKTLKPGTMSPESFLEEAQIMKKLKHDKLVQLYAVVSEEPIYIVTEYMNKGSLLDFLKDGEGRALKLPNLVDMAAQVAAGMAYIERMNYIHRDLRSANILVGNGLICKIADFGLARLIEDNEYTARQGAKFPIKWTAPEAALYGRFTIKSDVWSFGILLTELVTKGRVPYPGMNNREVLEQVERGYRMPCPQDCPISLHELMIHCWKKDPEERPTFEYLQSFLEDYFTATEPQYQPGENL

EPHB1 = EPHB1 (UniProt P54762); assay: as above
Chain of EPHB1 (P54762 whole entry, looked up): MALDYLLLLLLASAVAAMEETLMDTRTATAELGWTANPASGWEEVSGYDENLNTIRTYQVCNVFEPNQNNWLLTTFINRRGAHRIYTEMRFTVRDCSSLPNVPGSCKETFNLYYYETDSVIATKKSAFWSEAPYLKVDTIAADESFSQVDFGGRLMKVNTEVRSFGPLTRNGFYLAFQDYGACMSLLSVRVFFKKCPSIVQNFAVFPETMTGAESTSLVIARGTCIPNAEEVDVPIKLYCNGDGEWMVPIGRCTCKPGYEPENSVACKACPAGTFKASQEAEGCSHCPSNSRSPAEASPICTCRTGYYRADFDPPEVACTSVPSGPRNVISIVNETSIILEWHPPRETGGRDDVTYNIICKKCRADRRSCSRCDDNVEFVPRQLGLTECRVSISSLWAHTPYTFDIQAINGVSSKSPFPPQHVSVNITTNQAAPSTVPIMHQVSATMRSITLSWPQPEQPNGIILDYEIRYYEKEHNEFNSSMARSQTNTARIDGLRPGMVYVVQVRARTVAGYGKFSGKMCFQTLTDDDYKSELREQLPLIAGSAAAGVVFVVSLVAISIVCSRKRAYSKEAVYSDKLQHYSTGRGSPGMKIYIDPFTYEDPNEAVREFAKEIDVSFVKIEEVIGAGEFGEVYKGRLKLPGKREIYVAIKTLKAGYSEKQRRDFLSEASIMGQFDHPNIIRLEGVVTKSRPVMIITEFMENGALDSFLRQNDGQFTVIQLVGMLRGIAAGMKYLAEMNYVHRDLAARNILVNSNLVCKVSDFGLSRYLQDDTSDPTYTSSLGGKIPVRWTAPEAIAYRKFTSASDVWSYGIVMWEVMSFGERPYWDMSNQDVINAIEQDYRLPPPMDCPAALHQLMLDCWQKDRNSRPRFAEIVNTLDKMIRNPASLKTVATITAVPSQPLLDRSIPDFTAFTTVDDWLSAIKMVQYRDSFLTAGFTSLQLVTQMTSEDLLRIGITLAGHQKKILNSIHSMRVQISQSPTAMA

FGFR3 = FGFR3 (UniProt P22607); assay: as above
Fer (mouse) = assay: as above
Jak2 = Jak2 (UniProt O60674); assay: as above
Chain of Jak2 (O60674 whole entry, looked up): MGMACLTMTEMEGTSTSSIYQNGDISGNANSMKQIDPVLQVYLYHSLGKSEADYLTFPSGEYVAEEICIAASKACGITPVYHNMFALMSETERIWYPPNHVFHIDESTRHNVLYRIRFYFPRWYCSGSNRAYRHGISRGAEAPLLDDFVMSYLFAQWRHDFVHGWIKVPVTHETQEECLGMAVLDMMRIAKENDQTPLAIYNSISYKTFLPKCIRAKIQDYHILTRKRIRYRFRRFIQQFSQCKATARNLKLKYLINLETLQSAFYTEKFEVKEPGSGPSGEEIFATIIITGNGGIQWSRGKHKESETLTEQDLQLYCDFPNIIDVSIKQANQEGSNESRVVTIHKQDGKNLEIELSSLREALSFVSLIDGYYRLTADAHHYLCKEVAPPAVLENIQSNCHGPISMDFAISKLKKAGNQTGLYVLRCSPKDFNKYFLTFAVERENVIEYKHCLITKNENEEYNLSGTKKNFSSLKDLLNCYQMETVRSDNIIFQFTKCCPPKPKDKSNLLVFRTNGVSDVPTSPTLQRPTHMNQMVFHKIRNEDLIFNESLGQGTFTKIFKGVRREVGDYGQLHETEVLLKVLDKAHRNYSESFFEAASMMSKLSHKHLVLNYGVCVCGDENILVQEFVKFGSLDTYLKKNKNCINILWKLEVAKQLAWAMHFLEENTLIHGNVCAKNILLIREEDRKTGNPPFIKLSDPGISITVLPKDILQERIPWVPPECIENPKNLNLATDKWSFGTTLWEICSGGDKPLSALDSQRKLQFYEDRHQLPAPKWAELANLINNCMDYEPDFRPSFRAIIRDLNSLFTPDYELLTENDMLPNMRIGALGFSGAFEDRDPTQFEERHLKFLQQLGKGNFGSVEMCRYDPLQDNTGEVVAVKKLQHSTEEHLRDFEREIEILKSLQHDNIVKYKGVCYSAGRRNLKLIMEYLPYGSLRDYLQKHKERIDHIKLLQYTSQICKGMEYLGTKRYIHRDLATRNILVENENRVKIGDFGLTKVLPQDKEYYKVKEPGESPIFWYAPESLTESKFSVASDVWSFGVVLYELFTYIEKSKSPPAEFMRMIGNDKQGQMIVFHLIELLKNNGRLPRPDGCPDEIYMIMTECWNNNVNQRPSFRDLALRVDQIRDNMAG

MERTK = MERTK (UniProt Q12866); assay: as above
Hck = Hck (UniProt P08631); assay: as above
Chain of Hck (P08631 whole entry, looked up): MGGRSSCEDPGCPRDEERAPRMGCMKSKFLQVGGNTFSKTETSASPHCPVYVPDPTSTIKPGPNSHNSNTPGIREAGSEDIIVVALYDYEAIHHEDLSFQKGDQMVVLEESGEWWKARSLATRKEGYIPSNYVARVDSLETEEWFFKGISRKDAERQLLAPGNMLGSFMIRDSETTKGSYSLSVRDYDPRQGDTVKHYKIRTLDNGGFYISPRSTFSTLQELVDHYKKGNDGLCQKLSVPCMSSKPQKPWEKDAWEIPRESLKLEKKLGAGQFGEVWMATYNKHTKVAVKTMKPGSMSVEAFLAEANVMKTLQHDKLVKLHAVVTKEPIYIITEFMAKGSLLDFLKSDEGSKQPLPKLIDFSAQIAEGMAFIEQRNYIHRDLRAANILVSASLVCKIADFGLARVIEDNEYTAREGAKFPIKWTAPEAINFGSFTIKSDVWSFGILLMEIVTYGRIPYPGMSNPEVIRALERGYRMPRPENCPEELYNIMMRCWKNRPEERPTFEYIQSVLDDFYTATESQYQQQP

Fes = Fes (UniProt P07332); assay: as above
Chain of Fes (P07332 whole entry, looked up): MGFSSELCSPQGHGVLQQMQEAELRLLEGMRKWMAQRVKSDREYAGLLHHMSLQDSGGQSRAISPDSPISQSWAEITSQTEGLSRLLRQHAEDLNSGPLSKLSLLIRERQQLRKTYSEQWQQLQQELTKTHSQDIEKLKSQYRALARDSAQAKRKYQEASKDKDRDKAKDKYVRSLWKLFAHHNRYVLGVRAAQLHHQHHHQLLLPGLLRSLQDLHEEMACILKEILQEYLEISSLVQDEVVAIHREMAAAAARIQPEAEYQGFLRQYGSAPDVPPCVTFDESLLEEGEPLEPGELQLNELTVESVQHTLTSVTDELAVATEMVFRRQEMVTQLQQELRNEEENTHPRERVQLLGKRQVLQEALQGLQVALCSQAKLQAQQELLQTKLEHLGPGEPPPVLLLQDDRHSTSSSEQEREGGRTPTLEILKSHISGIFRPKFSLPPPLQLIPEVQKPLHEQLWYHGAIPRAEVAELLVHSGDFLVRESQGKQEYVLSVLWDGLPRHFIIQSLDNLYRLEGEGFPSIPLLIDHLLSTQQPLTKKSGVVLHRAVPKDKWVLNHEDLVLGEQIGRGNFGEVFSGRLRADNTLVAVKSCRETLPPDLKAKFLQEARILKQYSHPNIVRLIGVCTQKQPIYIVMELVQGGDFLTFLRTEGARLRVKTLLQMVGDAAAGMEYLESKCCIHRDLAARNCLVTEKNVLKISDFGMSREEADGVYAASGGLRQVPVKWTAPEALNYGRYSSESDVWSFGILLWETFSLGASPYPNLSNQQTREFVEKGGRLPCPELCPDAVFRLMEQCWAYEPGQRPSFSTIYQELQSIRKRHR

AncSZ = assay: as above
SHP2-C SH2 = assay: SH2 binding enrichment of the phosphorylated peptide, bacterial display (enrichment ratio); higher = better substrate or ligand; peptides without Tyr show the background
Grb2 SH2 = Grb2 SH2 (UniProt P62993); assay: as above
c-Src SH2 = assay: as above
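For SH2 binding enrichment of the phosphorylated peptide, bacterial display in this document: peptide library displayed on the E. coli surface as eCPX fusions, selected cells deep-sequenced, score is each peptide's frequency after selection divided by its frequency in the input.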
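For phosphorylation enrichment, bacterial display in this document: 11-residue human phosphosite peptides and single-mutation variants displayed on the E. coli surface, counted by deep sequencing, each peptide's frequency after selection divided by its frequency in the unselected input library; frequency after pTyr selection over input frequency; kinase dosed for 20-30% of maximal phosphorylation in three min.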

Chain of EPHB2 (P29323 whole entry, looked up): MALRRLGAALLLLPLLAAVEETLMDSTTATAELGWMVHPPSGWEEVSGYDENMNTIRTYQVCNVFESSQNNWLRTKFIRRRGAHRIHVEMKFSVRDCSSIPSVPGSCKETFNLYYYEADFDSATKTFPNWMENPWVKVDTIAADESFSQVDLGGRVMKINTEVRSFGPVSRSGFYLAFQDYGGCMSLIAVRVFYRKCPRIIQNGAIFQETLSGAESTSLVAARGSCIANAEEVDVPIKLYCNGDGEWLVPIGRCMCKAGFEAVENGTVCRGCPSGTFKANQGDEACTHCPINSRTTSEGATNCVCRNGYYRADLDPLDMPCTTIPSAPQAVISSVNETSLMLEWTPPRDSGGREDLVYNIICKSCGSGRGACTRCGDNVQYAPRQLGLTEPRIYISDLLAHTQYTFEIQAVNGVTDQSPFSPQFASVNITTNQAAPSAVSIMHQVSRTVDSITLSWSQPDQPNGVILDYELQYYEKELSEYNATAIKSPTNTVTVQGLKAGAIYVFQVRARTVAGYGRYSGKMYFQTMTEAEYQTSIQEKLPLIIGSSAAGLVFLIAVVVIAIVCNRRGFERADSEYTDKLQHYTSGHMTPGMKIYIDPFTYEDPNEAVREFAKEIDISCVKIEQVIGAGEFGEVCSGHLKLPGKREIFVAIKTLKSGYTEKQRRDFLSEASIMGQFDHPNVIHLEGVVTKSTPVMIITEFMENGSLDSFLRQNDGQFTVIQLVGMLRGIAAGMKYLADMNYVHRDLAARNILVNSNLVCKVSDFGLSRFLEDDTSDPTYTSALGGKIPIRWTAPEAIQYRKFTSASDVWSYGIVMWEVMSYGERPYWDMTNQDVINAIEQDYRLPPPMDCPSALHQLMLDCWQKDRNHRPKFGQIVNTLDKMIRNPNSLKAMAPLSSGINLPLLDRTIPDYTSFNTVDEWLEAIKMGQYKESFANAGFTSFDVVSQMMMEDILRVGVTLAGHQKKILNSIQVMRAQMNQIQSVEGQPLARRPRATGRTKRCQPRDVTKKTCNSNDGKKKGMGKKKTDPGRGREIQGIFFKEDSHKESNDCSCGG

| Sequence | phosphorylation enrichment (EPHB2) | phosphorylation enrichment (c-Abl (mouse)) | phosphorylation enrichment (c-Src) | phosphorylation enrichment (FGFR1) | phosphorylation enrichment (Fyn) | phosphorylation enrichment (EPHB1) | phosphorylation enrichment (FGFR3) | phosphorylation enrichment (Fer (mouse)) | phosphorylation enrichment (Jak2) | phosphorylation enrichment (MERTK) | phosphorylation enrichment (Hck) | phosphorylation enrichment (Fes) | phosphorylation enrichment (AncSZ) | SH2 binding enrichment (SHP2-C SH2) | SH2 binding enrichment (Grb2 SH2) | SH2 binding enrichment (c-Src SH2) |
| --- | --- | --- | --- | --- | --- | --- | --- | --- | --- | --- | --- | --- | --- | --- | --- | --- |
| DLDLTSIFPNI [PTEN_Y27_Y27S_YF] | 0.485 | 0.677 | 0.358 | 0.301 | 0.475 | 0.402 | 0.578 | 0.441 | 0.726 | 0.447 | 0.497 | 0.814 | 0.861 | 0.524 | 0.722 | 0.48 |
| DPLASYLDKVR [KRT10_Y160_R156P] | 0.608 | 0.392 | 0.44 | 0.48 | 0.468 | 0.413 | 0.534 | 0.455 | 0.521 | 0.441 | 0.477 | 0.744 | 0.751 | 0.767 | 0.864 | 0.545 |
| DRLASYRDKVR [KRT12_Y139_L140R] | 0.338 | 0.442 | 0.347 | 0.27 | 0.372 | 0.294 | 0.425 | 0.366 | 0.587 | 0.332 | 0.327 | 0.447 | 0.466 | 0.947 | 0.878 | 1.09 |
| DRLAVCIDRVR [LMNA_Y45_Y45C] | 0.518 | 0.76 | 0.436 | 0.467 | 0.46 | 0.605 | 0.682 | 0.457 | 0.904 | 0.394 | 0.477 | 1.15 | 0.942 | 0.653 | 0.807 | 0.541 |
| DTQNSYRCATS [TSC1_Y304_G305R] | 0.501 | 0.593 | 0.449 | 0.565 | 0.538 | 0.389 | 0.486 | 0.392 | 0.612 | 0.466 | 0.42 | 0.726 | 0.771 | 0.594 | 0.956 | 0.554 |
| DVQNAYDSNHC [ZFYVE16_Y36] | 0.495 | 0.723 | 0.495 | 0.487 | 0.495 | 0.505 | 0.719 | 0.555 | 0.681 | 0.574 | 0.533 | 0.949 | 0.999 | 0.95 | 1.06 | 0.644 |
| EADRKYEEVAG [TPM3_Y163_R168G] | 0.578 | 0.613 | 0.452 | 0.6 | 0.508 | 0.655 | 0.685 | 0.464 | 0.998 | 0.48 | 0.523 | 1.07 | 1.12 | 0.772 | 0.93 | 21.4 |
| EAIAKYDFKAT [GRB2_Y7] | 0.412 | 0.618 | 0.393 | 0.587 | 0.408 | 0.488 | 0.528 | 0.327 | 0.597 | 0.396 | 0.387 | 0.827 | 0.658 | 0.679 | 0.775 | 0.465 |
| EARRVYGDIIF [ALDH5A1_Y175_H180Y_YF] | 0.448 | 0.637 | 0.654 | 0.505 | 0.635 | 0.4 | 0.578 | 0.493 | 0.719 | 0.536 | 0.509 | 0.897 | 0.683 | 0.689 | 0.818 | 0.485 |
| EASGIYVKSII [PATJ_Y396] | 0.535 | 0.677 | 0.458 | 0.523 | 0.429 | 0.543 | 0.659 | 0.492 | 0.983 | 0.438 | 0.52 | 1.13 | 1.02 | 0.674 | 0.994 | 0.466 |
| EATKGYLDDPT [G6PD_Y322] | 0.473 | 0.774 | 0.392 | 0.412 | 0.424 | 0.655 | 0.593 | 0.553 | 0.949 | 0.455 | 0.421 | 1.03 | 0.859 | 0.525 | 0.785 | 0.567 |
| ECKLFYSRKEG [PTPN11_Y263_L262F] | 0.451 | 0.768 | 0.465 | 0.457 | 0.401 | 0.502 | 0.602 | 0.445 | 0.685 | 0.515 | 0.626 | 1 | 1.08 | 0.623 | 0.746 | 0.436 |
| EDEGLYTVRVP [MYOM3_Y343_M344T] | 0.692 | 0.737 | 3.4 | 0.633 | 3.52 | 0.766 | 0.939 | 1.38 | 1.04 | 1.84 | 4.08 | 1.24 | 1.64 | 0.617 | 0.83 | 0.488 |
| EDKFMYLEFPQ [PTEN_Y240_F241L] | 0.756 | 1.14 | 1.2 | 2.44 | 0.889 | 0.879 | 2.26 | 0.673 | 1.38 | 0.664 | 1.01 | 1.34 | 1.71 | 0.616 | 0.797 | 0.435 |
| EDKSIYRRGAC [PRKCI_Y125_R130C] | 0.429 | 0.474 | 0.315 | 0.42 | 0.375 | 0.34 | 0.495 | 0.35 | 0.532 | 0.406 | 0.405 | 0.705 | 0.496 | 0.831 | 0.941 | 0.514 |
| EEALYYLTRVE [SET_Y119_H118Y] | 1.91 | 1.53 | 4.59 | 9.54 | 4.26 | 1.85 | 9.52 | 5.28 | 2.69 | 6.68 | 4.07 | 1.43 | 2.55 | 1.39 | 0.947 | 0.669 |
| EELLHYAIVTP [POC5_Y37] | 1.49 | 1.56 | 1.09 | 1.33 | 0.723 | 3.27 | 1.1 | 6.7 | 1.04 | 5.76 | 1.23 | 1.24 | 1.48 | 1.7 | 0.691 | 1.13 |

| Sequence | phosphorylation enrichment (EPHB2) | phosphorylation enrichment (c-Abl (mouse)) | phosphorylation enrichment (c-Src) | phosphorylation enrichment (FGFR1) | phosphorylation enrichment (Fyn) | phosphorylation enrichment (EPHB1) | phosphorylation enrichment (FGFR3) | phosphorylation enrichment (Fer (mouse)) | phosphorylation enrichment (Jak2) | phosphorylation enrichment (MERTK) | phosphorylation enrichment (Hck) | phosphorylation enrichment (Fes) | phosphorylation enrichment (AncSZ) | SH2 binding enrichment (SHP2-C SH2) | SH2 binding enrichment (Grb2 SH2) | SH2 binding enrichment (c-Src SH2) |
| --- | --- | --- | --- | --- | --- | --- | --- | --- | --- | --- | --- | --- | --- | --- | --- | --- |
| EEQKKYYNATK [SCN5A_Y1494_M1498T] | 0.521 | 0.407 | 0.363 | 1.29 | 0.467 | 0.543 | 0.554 | 0.421 | 0.476 | 0.411 | 0.478 | 0.673 | 0.59 | 0.482 | 1.01 | 0.559 |
| EERNTYVNTTL [TEK_Y1102_K1100N] | 0.531 | 0.638 | 0.43 | 0.515 | 0.446 | 0.955 | 0.454 | 0.404 | 0.551 | 0.675 | 0.53 | 0.83 | 0.694 | 1.22 | 20.6 | 1.45 |
| EFAAGYNVKFD [GPX4_Y123] | 0.397 | 0.389 | 0.419 | 0.697 | 0.465 | 0.425 | 0.544 | 0.483 | 0.502 | 0.461 | 0.449 | 0.862 | 0.739 | 0.727 | 0.707 | 0.503 |
| EFHRLYEEFTR [PIK3R1_Y467_D464H_YF] | 2.58 | 0.709 | 5.59 | 0.573 | 7.21 | 5.22 | 0.579 | 3.87 | 0.714 | 4.42 | 7.49 | 0.941 | 0.97 | 0.782 | 0.86 | 0.694 |
| EFISEFCGEII [EZH2_Y641_Y641F] | 0.719 | 1.22 | 0.618 | 0.574 | 0.507 | 0.566 | 0.885 | 0.591 | 1.44 | 0.638 | 0.518 | 1.42 | 1.52 | 0.895 | 1.24 | 0.743 |
| EFRFIYMAVQH [PTPN11_Y515_Q510E_YF] | 0.737 | 1.16 | 2.05 | 0.555 | 1.42 | 0.881 | 0.864 | 1.01 | 1.18 | 0.519 | 1.63 | 1.35 | 1.31 | 0.86 | 0.912 | 0.596 |
| EFSNQYKATIG [RAB7A_Y37_K32E] | 0.413 | 0.524 | 0.311 | 0.405 | 0.339 | 0.411 | 0.474 | 0.442 | 0.52 | 0.342 | 0.446 | 0.559 | 0.455 | 0.519 | 0.665 | 0.316 |
| EHLNRYINDTF [TTLL10_Y446_S448N] | 0.608 | 0.751 | 0.517 | 0.525 | 0.467 | 0.567 | 0.654 | 0.53 | 1.08 | 0.46 | 0.49 | 1.08 | 0.853 | 0.728 | 6.49 | 1.02 |
| EIEFLYNENTV [IARS1_Y680] | 0.584 | 0.927 | 0.557 | 0.645 | 0.479 | 0.641 | 0.724 | 0.632 | 1.26 | 0.515 | 0.622 | 1.26 | 1.35 | 0.619 | 0.682 | 0.615 |
| EIIPFYGMSTY [FNDC3B_Y175] | 0.681 | 0.818 | 0.902 | 0.454 | 0.864 | 0.685 | 0.709 | 0.88 | 0.768 | 0.687 | 1.1 | 0.875 | 0.751 | 0.539 | 0.742 | 4.96 |
| EILLSDLRTGF [TGM1_Y365_Y365D_YF] | 0.477 | 0.631 | 0.418 | 0.487 | 0.464 | 0.42 | 0.56 | 0.576 | 0.69 | 0.378 | 0.478 | 0.891 | 0.779 | 0.567 | 0.7 | 0.417 |
| EIVHRYVELLD [AP1S3_Y87] | 0.53 | 0.744 | 0.498 | 0.41 | 0.464 | 0.483 | 0.673 | 0.499 | 0.922 | 0.506 | 0.504 | 1.06 | 0.892 | 1.11 | 0.91 | 21.6 |
| EKEKEYMLPLD [DNM2_Y563_K562E] | 0.414 | 0.479 | 0.358 | 0.443 | 0.421 | 0.48 | 0.604 | 0.388 | 0.743 | 0.442 | 0.469 | 0.959 | 1.1 | 0.729 | 0.834 | 0.581 |
| EKKDLYKAGEQ [CFH_Y1008_V1007L] | 0.432 | 0.62 | 0.369 | 0.356 | 0.43 | 0.382 | 0.647 | 0.431 | 0.606 | 0.374 | 0.374 | 0.799 | 0.705 | 0.655 | 0.794 | 0.46 |
| EKKKFYDAKIE [CASP5_Y104_T106A_YF] | 0.409 | 0.718 | 0.466 | 0.431 | 0.369 | 0.4 | 0.534 | 0.435 | 1.05 | 0.349 | 0.468 | 0.803 | 0.751 | 0.783 | 0.686 | 0.453 |
| EKRDAYVSCLN [GSR_Y150_R153C] | 0.472 | 0.776 | 0.514 | 0.563 | 0.481 | 0.568 | 0.702 | 0.437 | 0.726 | 0.472 | 0.53 | 1.1 | 0.925 | 0.934 | 1.19 | 0.878 |
